Ends that are not written are not given here. Texas Red = Texas Red fluorescent dye
Legend:
[1] = test system: GBM tissue; conditions: cited from earlier work
[2] = molecular target: T1, proteolytically cleaved extracellular fragments of PTPμ (Homo sapiens, UniProt P28827); assay: SBK4-TR staining of human glioma tissue microarrays and slides; format: binding
T1 construct: from tissue; host or cells: formalin-fixed, paraffin-embedded human glioma patient tumor tissue (TMAs and slides)
T1 sequence (P28827 21-742 limits assumed): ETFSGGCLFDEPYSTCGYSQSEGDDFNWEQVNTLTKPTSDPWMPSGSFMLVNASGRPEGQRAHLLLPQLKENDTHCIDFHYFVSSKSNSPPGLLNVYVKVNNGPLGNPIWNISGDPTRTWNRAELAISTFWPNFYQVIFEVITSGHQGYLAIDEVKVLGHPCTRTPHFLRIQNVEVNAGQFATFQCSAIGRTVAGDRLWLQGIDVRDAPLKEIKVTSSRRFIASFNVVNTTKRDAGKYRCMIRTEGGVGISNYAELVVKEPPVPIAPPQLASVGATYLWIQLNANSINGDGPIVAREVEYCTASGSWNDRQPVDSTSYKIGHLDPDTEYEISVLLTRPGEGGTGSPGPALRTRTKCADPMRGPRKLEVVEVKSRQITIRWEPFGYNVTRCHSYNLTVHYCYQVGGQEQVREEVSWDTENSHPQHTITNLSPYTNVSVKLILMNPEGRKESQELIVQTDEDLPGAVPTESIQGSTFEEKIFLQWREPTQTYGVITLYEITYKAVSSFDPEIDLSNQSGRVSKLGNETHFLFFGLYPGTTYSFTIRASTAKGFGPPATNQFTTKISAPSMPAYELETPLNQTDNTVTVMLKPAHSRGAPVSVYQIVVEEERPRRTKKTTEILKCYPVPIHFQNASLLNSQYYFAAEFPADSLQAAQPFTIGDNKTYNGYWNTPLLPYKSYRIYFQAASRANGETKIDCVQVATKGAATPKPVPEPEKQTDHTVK
Source text: The SBK4 peptide used for immunohistochemistry was synthesized as described. The N-terminal glycine of SBK4 peptide was coupled to Texas Red (TR; Molecular Probes Inc, Eugene Oreg.) as described to make the fluorescent agent. Anti-IDH1 R132H Monoclonal Antibody clone H09 (American Research Products [Dianova GmbH], Waltham, Mass.) reacts specifically with the isocitrate dehydrogenase 1 (IDH1) R132H point mutation in tissue sections from formalin-fixed brain tumor specimens.
Patient tumor samples were obtained, formalin-fixed, and paraffin-embedded for analysis. Some samples were incorporated into tissue microarrays (TMAs) and some samples were placed on individual slides. Together, these TMAs and slides represented samples from 94 glioma patients (25 adolescent and young adult and 69 adult) with astrocytomas (n=12), oligodendroglioma (n=14), oligoastrocytoma (n=7), and GBM (n=61). Tissue staining with SBK4-TR has been described. […] Antibody binding was detected using MACH4 horseradish peroxidase (Biocare, Pacheco, Calif.) and diaminobenzidine was used as chromogenic substrate. […]
Tissue staining intensity for both PTPμ and IDH1 biomarkers was quantified by blinded observers. […] For IDH1, samples were scored as either positive for the mutation or negative as it is done clinically.

[3] = molecular target: T2, PTPμ biomarker (Homo sapiens, UniProt P28827); assay: SBK4-TR staining of human gynecologic cancer, normal and PDX tissue (Image J quantification); format: binding
T2 construct: from tissue; host or cells: formalin-fixed, paraffin-embedded human gynecologic cancer and normal tissue, and patient-derived xenograft sections
Source text: The SBK4 peptide used for tissue staining was synthesized as described. The N-terminal glycine of SBK4 peptide was coupled to Texas Red (TR; Molecular Probes Inc, Eugene, Oreg., USA) as described to make the fluorescent agent. Anti-p53 Monoclonal or Ki-67 antibodies were used to counterstain tissue sections, to indicate nuclear staining of p53 typical in high-grade serous ovarian carcinoma.
All samples used for this study were obtained from the Difeo and Avril labs. The Avril group generated tissue microarrays of several gynecologic cancers (TMAs) to facilitate screening a large number of patient biopsy tissues. The Difeo lab generated TMAs that included sections from patient derived xenografts (PDXs) matched to original patient tumor tissue sections. Additional individual biopsy and normal tissue samples were stained as individual slides. Together, these TMAs and slides represented samples from 73 patients (49 with gynecologic cancer, 22 sections from patients without cancer, and 2 patients with gynecologic cancer tissue and control tissue samples collected). The following gynecologic cancer types were represented in the dataset: endometrial clear cell carcinoma (n=3), endometrial endometrioid carcinoma (n=18), endometrial high-grade serous carcinoma (n =6), endometrial leiomyosarcoma (n=1), endometrial undifferentiated carcinoma (n=1), endometrial undifferentiated sarcoma (n=1), neuroendocrine tumor of the uterus (small cell) (n=1), ovarian carcinosarcoma (n=1), ovarian borderline serous (n=1), ovarian high-grade villoglandular carcinoma (n=1), ovarian high-grade serous carcinoma (n=16), ovarian endometrioid carcinoma (n=1).
Tissue staining with SBK4-TR was described. Positive controls (GBM) and negative controls (Epilepsy) were tested with the TMAs or individual slides. Tumor samples were obtained formalin-fixed and paraffin-embedded. Prior to staining, the TMAs or slides were deparaffinized and blocked with 2% goat serum in phosphate buffered saline (PBS) for 20 min at room temperature (RT). The samples were then incubated with SBK4-TR agent diluted in 2% goat serum in PBS at RT for 1 hr in the dark. Following a PBS rinse, the TMAs or slides were coverslipped with Vectashield Hard Set Mounting Medium (Vector Laboratories, Inc., Burlingame, Calif., USA) and imaged on a Hamamatsu Nanozoomer S60 slide scanner (Bridgewater, N.J., USA). Some samples were also stained for the IDH1 mutation. Tissue staining for both PTPμ was quantified using Image J.

T2 sequence (P28827 21-1452): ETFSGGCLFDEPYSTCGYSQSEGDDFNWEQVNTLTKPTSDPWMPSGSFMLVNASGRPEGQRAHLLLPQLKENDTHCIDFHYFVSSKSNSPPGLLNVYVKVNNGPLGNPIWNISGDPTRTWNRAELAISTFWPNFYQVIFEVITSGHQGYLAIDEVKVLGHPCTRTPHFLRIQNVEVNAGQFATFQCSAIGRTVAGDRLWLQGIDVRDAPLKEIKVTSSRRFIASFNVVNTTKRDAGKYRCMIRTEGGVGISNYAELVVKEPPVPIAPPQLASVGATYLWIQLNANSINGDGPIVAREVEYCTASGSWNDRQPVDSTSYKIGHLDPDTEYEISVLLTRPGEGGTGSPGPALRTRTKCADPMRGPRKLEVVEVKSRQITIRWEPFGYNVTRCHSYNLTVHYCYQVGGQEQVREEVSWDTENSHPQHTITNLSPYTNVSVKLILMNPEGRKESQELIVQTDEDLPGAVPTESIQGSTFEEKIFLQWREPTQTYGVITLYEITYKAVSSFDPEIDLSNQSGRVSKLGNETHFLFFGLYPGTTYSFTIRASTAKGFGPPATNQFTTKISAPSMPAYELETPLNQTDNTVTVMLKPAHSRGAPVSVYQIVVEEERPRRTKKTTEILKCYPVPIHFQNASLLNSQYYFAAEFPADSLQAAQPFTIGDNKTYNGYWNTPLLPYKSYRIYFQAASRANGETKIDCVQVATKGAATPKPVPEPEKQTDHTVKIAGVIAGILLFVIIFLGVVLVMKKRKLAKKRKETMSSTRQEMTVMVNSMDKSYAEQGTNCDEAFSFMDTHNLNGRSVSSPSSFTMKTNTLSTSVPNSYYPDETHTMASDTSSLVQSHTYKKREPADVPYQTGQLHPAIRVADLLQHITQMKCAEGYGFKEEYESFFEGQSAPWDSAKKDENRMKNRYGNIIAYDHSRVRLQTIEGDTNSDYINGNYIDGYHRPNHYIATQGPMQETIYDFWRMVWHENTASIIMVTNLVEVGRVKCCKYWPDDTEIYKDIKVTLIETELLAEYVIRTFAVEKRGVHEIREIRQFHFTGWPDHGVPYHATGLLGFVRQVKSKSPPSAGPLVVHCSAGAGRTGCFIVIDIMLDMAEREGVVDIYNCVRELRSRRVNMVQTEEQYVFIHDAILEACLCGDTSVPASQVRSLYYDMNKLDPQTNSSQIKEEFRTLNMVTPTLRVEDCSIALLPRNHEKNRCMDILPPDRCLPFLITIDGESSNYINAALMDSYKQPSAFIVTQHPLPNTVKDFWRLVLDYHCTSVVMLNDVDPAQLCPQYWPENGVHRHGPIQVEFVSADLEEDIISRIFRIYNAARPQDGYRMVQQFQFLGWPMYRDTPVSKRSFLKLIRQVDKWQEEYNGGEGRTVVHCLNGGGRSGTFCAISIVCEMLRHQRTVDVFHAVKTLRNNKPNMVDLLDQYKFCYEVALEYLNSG

Row | Compound | labeling the dispersive GBM tumor border ([1]; in vivo) | six month progression-free survival ([1]; surgical resection of GBM) | extent of tumor resection ([1]; surgical resection of GBM, versus 36% with white light alone) | PTPμ staining of the tumor samples ([2]; formalin-fixed paraffin-embedded glioma samples, fluorescent microscope) | labeling of glioma tissue by grade ([2]; low- and high-grade glioma tissue) | SBK4-TR staining of tumor tissue compared to control tissue ([3]; endometrial endometrioid cancer, high-grade serous endometrial carcinoma, endometrial clear cell carcinoma, small sample sizes) | staining observed within the TMAs ([3]; gynecologic cancer TMAs) | SBK4-TR labeling of tumor tissue compared to normal tissue ([3]; high-grade serous ovarian carcinoma vs normal ovary or normal fallopian tube) | SBK4-TR labeling of PDX tissue compared to original patient tumor tissue ([3]; matched patient tumor and PDX tumors, all samples) | correspondence of sites of high SBK4-TR labeling with p53 and Ki-67 staining ([3]; patient with multiple lesions)
1 | NCC(=O)CCC(=O)O [5-ALA, 5-aminolevulinic acid] | less effective | improvement | 65% |  |  |  |  |  |  | 
2 | SBK4-TR: SBK4 peptide (SEQ ID NO: 7) conjugated to Texas Red ({Texas Red}-GIDVRDAPLKEIKVTSSR) |  |  |  | variable PTPμ staining | labels both low- and high-grade glioma tissue | did not have statistically significantly higher SBK4-TR staining than control tissue | varied amongst individual patients | statistically significantly higher staining | PDX tissue had higher levels of SBK4-TR labeling than the original patient tumor tissue | correspond to areas of high p53 and Ki-67 staining

From patent publication US12013397B2, “Compositions and methods for determining cancer prognosis” (CASE WESTERN RESERVE UNIVERSITY, priority 2019, dated 2024)
